{
  "source": "patent US20170240633A1",
  "about": "(published 2017)",
  "binders": {"B1": {"name": "anti-TIM-3 antibody clone A11 (antibody, V domains shown)", "VH": "QVQLQQWGAGLLKPSETLSLTCAVYGGSFSGYYWSWIRQPPGKGLEWIGEINHSGSTNYNPSLKSRVTISVDTSKNQFSLKLSSVTAADTAVYYCARGYVAGFDYWGQGTLVTVSS", "VL": "QSVVTQPPSVSAAPGQKVTISCSGSSSNIGNNYVSWYQQLPGTAPKLLIYGNNWRPSGIPDRFSGSKSGTSATLAISGLQTGDEADYYCETWDSSLSAGVFGGGTKLTVL", "notes": "ELISA and SPR are described for Fab; The format in each assay is not clearly stated"}, "B2": {"name": "anti-TIM-3 antibody clone G6 (antibody, V domains shown)", "VH": "QVQLQESGPGLVKPSGTLSLTCAVSGGSISSSNWWSWVRQPPGKGLEWIGEIYHSGSTNYNPSLKSRVTISVDKSKNQFSLKLSSVTAADTAVYYCARVVAVAGTVDYWGQGTLVTVSS", "VL": "not shown", "notes": "as for B1"}, "B3": {"name": "anti-TIM-3 antibody clone G7 (antibody, V domains shown)", "VH": "EVQLVQSGAEVKKPGASVKVSCKASGYTFTSYYMHWVRQAPGQGLEWMGIINPSGGSTSYAQKFQGRVTMTRDTSTSTVYMELSSLRSEDTAVYYCARDQYSSGWYYYGMDVWGQGTTVTVSS", "VL": "not shown", "notes": "as for B1"}, "B4": {"name": "anti-TIM-3 antibody clone G9 (antibody, V domains shown)", "VH": "B3 VH with E1Q, V5Q, Q100L, S103Y, W105F", "VL": "not shown", "notes": "as for B1"}, "B5": {"name": "anti-TIM-3 antibody clone A3 (antibody, V domains shown)", "VH": "QVQLVQSGAEVKKPGASVKVSCKASGYTFTSYYMHWVRQAPGQGLEWMGIINPSGGSTSYAQKFQGRVTMTRDTSTSTVYMELSSLRSEDTAVYYCARSPGVVTALFDYWGQGTLVTVSS", "VL": "DIQMTQSPSFMSASVGDRVTITCRASQDIGSYLAWYQQKPGKAPKLLIYAASTLQSGVPSRFSGSGSGTDFTLTINSLQPEDFATYYCQQSYSSPPTFGPGTTLEIK", "notes": "From a human phage display library; ELISA screening used Fab-containing supernatants and SPR speaks of 'each candidate Fab'; The format in each assay is not clearly stated"}, "B6": {"name": "anti-TIM-3 antibody clone B10 (antibody, V domains shown)", "VH": "QVQLQESGPGLVKASETLSLTCTVSGGSIGSSDYYWGWIRQPPGKGLEWIGSIYYSGSTYYNPSLKSRVTMSVDTPNNQFSLKLSSVTAADTAVYYCARGEHRGEFDYWGQGTLVTVSS", "VL": "EIVLTQSPATLSFSPGERATLSCRASQSVGSYLAWYQQRPGQAPRPLIYDATNRATGIPTRFSGSGSGTDFTLTISSLEPEDFATYYCQHRRTFGRGTKLEIK", "notes": "as for B1"}},
  "note": "Residue numbers refer to the chain shown, from its start.",
  "data": [
    {"target": "T1, human TIM-3 coupled to human Fc (human, UniProt Q8TDQ0 22-200, limits assumed)", "T1 construct": "Antigen coated on ELISA plates and immobilised on the SPR chip; not shown: human Fc", "test": "ELISA on plate-coated human TIM-3 coupled to human Fc", "values": [
      {"binder": "B1", "binding result": "binds"},
      {"binder": "B2", "binding result": "binds"},
      {"binder": "B3", "binding result": "binds"},
      {"binder": "B4", "binding result": "binds"},
      {"binder": "B5", "binding result": "binds"},
      {"binder": "B6", "binding result": "binds"}
    ]}
  ]
}
